This is an account of results in patent US20180305702A1.

The target of assay [1] is H-2K^b on DC2.4 cells not presenting SIINFEKL (cells infected with a non-SIINFEKL-expressing Lm strain; K^b-SIINFEKL negative populations) (murine). Description: flow cytometry, K^b-SIINFEKL negative populations of infected DC2.4 cells. Background: In flow cytometry, cells or beads pass a laser one at a time.
Assay [2] shares this target. Description: flow cytometry, DC2.4 cells infected with a non-SIINFEKL-expressing Lm strain at MOI 20.
The target of assay [3] is cell surface MHC class I K^b molecules presenting the OVA257-264 SIINFEKL peptide (murine). In words: flow cytometry, DC2.4 cells infected with ADXS31-2142 at MOI 20, stained five hours post-infection.
For assay [4] the target is unchanged. Description: flow cytometry, K^b-SIINFEKL positive population of DC2.4 cells infected with Lm expressing PSA-PSMA-SIINFEKL
The target is the same in assay [5]. Description: flow cytometry, K^b-SIINFEKL positive population of DC2.4 cells infected with Lm expressing PSA-Survivin-SIINFEKL
Assay [6] has the same target. In words: flow cytometry, K^b-SIINFEKL positive population of DC2.4 cells infected with the SIINFEKL minigene Lm (positive control).

As for “Alexa Fluor 647 conjugated 25D-1.16 antibody”, the Mean fluorescence intensity (MFI) was 300 MFI in assay [1], 2040 MFI in assay [4], 4780 MFI in assay [5] and 14900 MFI in assay [6]. In addition, the percentage of Alexa647+ DC2.4 cells in assay [2] came out at 0.37%; in assay [3], 14.6%.
